± gives the standard deviation.
Assay: protein stability index of a GFP-peptide fusion (GPS, HEK-293T) (PSI 1-6); higher = more stable
[1] = treatment: DMSO, c terminus: a fixed tail appended
[2] = treatment: MLN4924 1 uM, 8 h, c terminus: a fixed tail appended
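Further: 24-mer peptide tiles fused after GFP, lentivirally expressed, FACS-sorted into six equal bins by GFP/DsRed ratio, decoded by Illumina sequencing, PSI is the read-weighted mean bin number.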

| Sequence | protein stability index [1] | protein stability index [2] | protein stability index (treatment: DMSO, c terminus: native) | protein stability index (treatment: MLN4924 1 uM, 8 h, c terminus: native) |
| --- | --- | --- | --- | --- |
| NLFVPLNTNPKEVQEMRNKIREQN [ADD1] | 4.29 ± 0.18 | 4.18 ± 0.24 |  |  |
| NLSKTQNMERFGEDNLEDDDVEMK [CDC14A] | 5.4 ± 0.061 | 5.4 ± 0.12 |  |  |
| NLSRDVTEALILQLFSQIGPCKNC [TIA1] | 2.48 ± 0.42 | 2.91 ± 0.6 |  |  |
| NMDPAGLDDEDDTSIGMPSLMYRS [RETREG3] | 4.87 ± 0.15 | 4.91 ± 0.1 |  |  |
| NNLLSAPPPDVTQLTPPSHDLTDN [ANKRD17] | 5.12 ± 0.28 | 5.18 ± 0.18 |  |  |
| NPYYDPLQWKSSHFERRDNMNDNF [CHGB] | 3.27 ± 0.1 | 3.14 ± 0.23 |  |  |
| NQHGIILKYIGMAKREINKLLKQK [ARL6IP1] | 1.93 ± 0.39 | 2.16 ± 0.32 |  |  |
| NRIKGCHDHLTLSVSRPEGRSWPS [PDLIM4] | 2.87 ± 0.25 | 3.02 ± 0.18 |  |  |
| NRNQRIVQLIQDTRIHILPSMNPD [CPN1] | 2.95 ± 0.12 | 3 ± 0.25 |  |  |
| NSAMPFKILYDDGKMVEEVDGRAT [PTPRD] | 4.69 ± 0.32 | 4.62 ± 0.13 |  |  |
| NSEEEEDDDDEEEEVSEVESFILD [ANKRD17] | 5.06 ± 0.33 | 4.94 ± 0.23 |  |  |
| NSNTPVDDFHTNDVCSFPNALVTK [FEM1B] | 4.68 ± 0.26 | 4.5 ± 0.18 |  |  |
| NSTGSGRGKKLMVLTEPILIETYT [TPRG1] | 2.57 ± 0.18 | 2.75 ± 0.24 |  |  |
| NTELQDVQRIMVANIEEVLQRGEA [SEC22B] | 4.7 ± 0.36 | 4.71 ± 0.25 |  |  |
| NTKNEISELTRLIQRIRSEIENVK [KRT71] | 2.83 ± 0.14 | 2.78 ± 0.24 |  |  |
| NTKRAIHTLAVMNDRLYAIGGNHL [KLHL14] | 2.2 ± 0.19 | 2.3 ± 0.14 |  |  |
| NTSIRVADFGSATFDHEHHTTIVA [CLK3] | 3.52 ± 0.45 | 3.27 ± 0.28 |  |  |
| NTVVSTYVTTNVSLIPPRSEQLVN [TMEM106C] | 3.04 ± 0.3 | 3.19 ± 0.24 |  |  |
| NVAASNAKLALFYDWLFFSPDKDS [INTS3] | 2.39 ± 0.46 | 2.55 ± 0.55 |  |  |
| NVCDDYDVTCNEFFFDRNPGAFGT [KCNG1] | 3.44 ± 0.25 | 3.65 ± 0.12 |  |  |
| NYPYDKSFEHRVRGVRRTASTPTP [CPN1] | 4.05 ± 0.4 | 4.14 ± 0.23 |  |  |
| PAGERRIYRHRIPSTICFGQGAAR [ZNF511] | 2.89 ± 0.5 | 3.22 ± 0.45 |  |  |
| PCCSSSPEEPLNGESYESCCPTSR [FEM1A] | 4.28 ± 0.22 | 4.64 ± 0.31 |  |  |

| Sequence | protein stability index [1] | protein stability index [2] | protein stability index (treatment: DMSO, c terminus: native) | protein stability index (treatment: MLN4924 1 uM, 8 h, c terminus: native) |
| --- | --- | --- | --- | --- |
| PCKQCKKKYVKGDVSLCRWHPKPY [FBXO34] | 3.09 ± 0.34 | 3.07 ± 0.51 |  |  |
| PCSEFMEPSSDPSLLGEPCAGPGF [SPAG8] | 4.15 ± 0.25 | 4.44 ± 0.28 |  |  |
| PDANTWTALPPMNEARHNFGIVEI [GAN] | 2.42 ± 0.34 | 2.51 ± 0.43 |  |  |
| PDFILKVVIDKHPVRFFVHKRPHV [CTDNEP1] | 2.46 ± 0.56 | 2.44 ± 0.76 |  |  |
| PDGLRSGDGVPPRSLQDGTREGFG [LCOR] | 4.95 ± 0.11 | 5.15 ± 0.16 |  |  |
| PDPSHSPSDKVGRADAHLGSSSVA [TOR1AIP2] | 4.98 ± 0.37 | 4.68 ± 0.95 |  |  |
| PEDEVIVNQYVIRPGPSASAASSA [RNF208] | 4.61 ± 0.12 | 4.62 ± 0.16 |  |  |
| PEERLEKQNEKLNNQEEETEFKEL [CCDC89] | 5.67 ± 0.11 | 5.48 ± 0.29 |  |  |
| PEIAQNFSAPDPPRPRPVSLSLRL [SMTNL2] | 2.91 ± 0.27 | 3.04 ± 0.22 |  |  |
| PFNQSTFNNVVEQNFKNRESYPED [DLC1] | 4.62 ± 0.14 | 4.66 ± 0.16 |  |  |
| PGRPRTDGENVFTGQSKIYSYMSP [KMT5A] | 3.4 ± 0.39 | 3.58 ± 0.23 |  |  |
| PHLMPSNCGLEEKIANLGSCNDSK [S100A14] | 2.61 ± 0.9 | 1.66 ± 0.27 |  |  |
| PHQPVTAITRVSDRFSGETSAAAL [SMTNL2] | 4.32 ± 0.39 | 4.32 ± 0.17 |  |  |
| PKLREETAHMLGVRELRIAFREFD [CABP4] | 2.92 ± 0.29 | 3.17 ± 0.29 |  |  |
| PLGLEVDQFLEDVRLQERTSGGLL [NOP53] | 4.42 ± 0.14 | 4.47 ± 0.12 |  |  |
| PLNPKPHKKKSPGEKPHRCPQCGK [ZNF449] | 4.24 ± 0.12 | 4.49 ± 0.35 |  |  |
| PLRAVHINLEEKEKQIRSFLIEGP [PLEKHN1] | 3.7 ± 0.31 | 3.8 ± 0.2 |  |  |
| PNTAVSVHVSESSDDDEEEEENIG [ACBD3] | 5.5 ± 0.3 | 5.63 ± 0.12 |  |  |
| PPQPMVPLAVENQAGGEGAGGELG [PBXIP1] | 5.52 ± 0.11 | 5.51 ± 0.12 |  |  |
| PPTRGPPPSYGGSSRYDDYSSSRD [RBMX] | 5.05 ± 0.23 | 4.93 ± 0.19 |  |  |
| PQDGSYPRQADHDDHECCERVVIN [KCNA1] | 5.22 ± 0.41 | 5.18 ± 0.34 |  |  |
| PQDSGTAAWKGRVLLPETQKRQQL [C22orf31] | 4.44 ± 0.17 | 4.27 ± 0.29 |  |  |
| PQEESEESNVSMASLGEKRDHHST [CHGB] | 5.59 ± 0.37 | 5.58 ± 0.16 |  |  |

| Sequence | protein stability index [1] | protein stability index [2] | protein stability index (treatment: DMSO, c terminus: native) | protein stability index (treatment: MLN4924 1 uM, 8 h, c terminus: native) |
| --- | --- | --- | --- | --- |
| PQSPPSCRAPPPEARGIRAPPLPD [FCHO1] | 4.92 ± 0.12 | 5.09 ± 0.24 |  |  |
| PREQAARFCSEIKSSKYGEGHQAW [SEPHS2] | 3.36 ± 0.12 | 3.52 ± 0.19 |  |  |
| PRMLRESGHGDAHLQEYAGNFQGI [FATE1] | 4 ± 0.24 | 4.22 ± 0.13 |  |  |
| PSMIATGSVGAAICGLQQDEEVSS [CCND2] | 5.41 ± 0.1 | 5.15 ± 0.27 |  |  |
| PTQVPAAEDYLTWKEWGFTGVQEV [SPAG8] | 3.5 ± 0.24 | 3.59 ± 0.31 |  |  |
| PTVHVEVHQRGSSTAKKEDINLSV [TRIP13] | 4.83 ± 0.2 | 4.84 ± 0.29 |  |  |
| PVIAAPSMWTRPQIKDFKEKIQQD [ACBD3] | 4.59 ± 0.32 | 4.41 ± 0.4 |  |  |
| PVKELAALPKATILDLSCNKLTTL [LRRC59] | 3.26 ± 0.1 | 3.43 ± 0.35 |  |  |
| PVRAYDFLLKFLLVGDSDVGKGEI [RAB40B] | 2.28 ± 0.3 | 2.62 ± 0.58 |  |  |
| PYYLRSFLVVLKTVLENEDDMLLF [FAN1] | 2.27 ± 0.36 | 2.26 ± 0.25 |  |  |
| QACARNILVQTPESESPQSHRAAG [TRIM9] | 4.46 ± 0.16 | 4.5 ± 0.27 |  |  |
| QACMGGRCLHMDQLQDFNIPQAGG [ADAMTS4] | 3.38 ± 0.15 | 3.21 ± 0.09 |  |  |
| QAQQKKAPAKKANSTTTAGRDHFL [BRD3] | 4.44 ± 0.48 | 4.62 ± 0.15 |  |  |
| QARHQLVLTAVDGGTPARSGTTLI [PCDHGC5] | 3.18 ± 0.083 | 3.15 ± 0.38 |  |  |
| QEGSSGMELSWGQSPGQPVQGGSE [TEX19] | 5.28 ± 0.26 | 5.29 ± 0.51 |  |  |
| QEKEELRELNDRLAVYIDKVRSLE [LMNB1] | 3.72 ± 0.31 | 3.9 ± 0.2 |  |  |
| QGRKIAEVCCTSIVYATEKKQTKV [KCTD13] | 3.39 ± 0.15 | 3.61 ± 0.28 |  |  |
| QIKTLLALSCHEQEMVVSSLVIGA [SLC2A12] | 3.78 ± 0.47 | 3.1 ± 0.55 |  |  |
| QIPVTDSGRHILEDSCAELGESKE [SDE2] | 5.35 ± 0.12 | 5.19 ± 0.38 |  |  |
| QIRTVIQYQTVRYDILPLSPVSRN [CTDNEP1] | 2.36 ± 0.2 | 2.26 ± 0.13 |  |  |
| QKASLLIQQALTMFPGVLLPLLES [TCF25] | 3.23 ± 0.48 | 3.51 ± 0.29 |  |  |
| QKKDCVPLMKPHRPWADTCSSSGK [HESX1] | 3.49 ± 0.52 | 3.67 ± 0.53 |  |  |
| QKKQKLEQKAAGSASAKRVWNMTA [FATE1] | 4.01 ± 0.15 | 3.93 ± 0.37 |  |  |

| Sequence | protein stability index [1] | protein stability index [2] | protein stability index (treatment: DMSO, c terminus: native) | protein stability index (treatment: MLN4924 1 uM, 8 h, c terminus: native) |
| --- | --- | --- | --- | --- |
| QLDREAQARHQLVLTAVDGGTPAR [PCDHGC5] | 4.59 ± 0.1 | 4.76 ± 0.18 |  |  |
| QLTGHQRIHSGEEPHKCPECGKRF [ZNF449] | 4.01 ± 0.28 | 4.82 ± 0.38 |  |  |
| QLVKKLNDSDHQSSTSPLMEGTPT [VPS39] | 4.87 ± 0.22 | 4.9 ± 0.09 |  |  |
| QMPQEEVELLPPAPKGKGRKPAAG [BRD3] | 4.98 ± 0.39 | 5.1 ± 0.18 |  |  |
| QNPVLSKLLMADQDSPLDLTVRKS [LCOR] | 4.14 ± 0.27 | 4.25 ± 0.21 |  |  |
| QNRVFAYLCKRVPHTVLDRQLLCL [CEP70] | 2.46 ± 0.76 | 2.46 ± 0.59 |  |  |
| QPKPLLLPAAPKTQTISSIPPQT [ATF6] |  |  | 4.73 ± 0.23 | 4.65 ± 0.34 |
| QPLSPASSSYSVSSPRSVDSYSST [ATF6] | 4.38 ± 0.22 | 4.59 ± 0.28 |  |  |
| QPPPPPPPPPMQPTVPSAATSQPT [CCDC6] | 5.11 ± 0.16 | 5.29 ± 0.062 |  |  |
| QPTTLVLPPQYVDDVISRIDRMFP [MED27] | 3.67 ± 0.24 | 3.98 ± 0.074 |  |  |
| QQDFLGLPEELRRLSGLSSVGHNW [C22orf15] | 2.96 ± 0.21 | 3.11 ± 0.14 |  |  |
| QRHPRLRPQSAQSSFPPSPGPSPD [AUP1] | 4.76 ± 0.21 | 4.97 ± 0.18 |  |  |
| QRKVDGIQKAYDELRLQSEAFKKH [CCDC89] | 4.07 ± 0.19 | 4.21 ± 0.3 |  |  |
| QRPFIRMSWEKEEGKSRHVDFQCV [BTBD10] | 2.95 ± 0.24 | 3.04 ± 0.37 |  |  |
| QRSPLGGDVLHAHLDIWKSAAWMK [SPDEF] | 2.61 ± 0.37 | 2.58 ± 0.45 |  |  |
| QSDVGVAVFENKIYVVGGYSWNNR [KLHL13] | 2.19 ± 0.34 | 2.26 ± 0.12 |  |  |
| QSFCGENIMMPMGGMMPPGPGIPP [ZNF207] | 3.15 ± 0.31 | 3.27 ± 0.26 |  |  |
| QSKILKVIRKNIVKKCLELFSELA [HSP90AB1] | 2.47 ± 0.37 | 3.39 ± 0.91 |  |  |
| QSLRCDLIRYICGVVHPSNEVLSS [INTS3] | 2.33 ± 0.34 | 2.19 ± 0.45 |  |  |
| QSTDGARGKRGYSRGLHAWEISWP [SPSB2] | 2.9 ± 0.14 | 2.75 ± 0.39 |  |  |

From the supplement of paper PMC10567573
